{
  "source": "patent US20030049732A1",
  "about": "(Human Genome Sciences, published 2003)",
  "binders": {"B1": {"name": "A20 (other, UniProt P21580 1-790, looked up)", "chain": "MAEQVLPQALYLSNMRKAVKIRERTPEDIFKPTNGIIHHFKTMHRYTLEMFRTCQFCPQFREIIHKALIDRNIQATLESQKKLNWCREVRKLVALKTNGDGNCLMHATSQYMWGVQDTDLVLRKALFSTLKETDTRNFKFRWQLESLKSQEFVETGLCYDTRNWNDEWDNLIKMASTDTPMARSGLQYNSLEEIHIFVLCNILRRPIIVISDKMLRSLESGSNFAPLKVGGIYLPLHWPAQECYRYPIVLGYDSHHFVPLVTLKDSGPEIRAVPLVNRDRGRFEDLKVHFLTDPENEMKEKLLKEYLMVIEIPVQGWDHGTTHLINAAKLDEANLPKEINLVDDYFELVQHEYKKWQENSEQGRREGHAQNPMEPSVPQLSLMDVKCETPNCPFFMSVNTQPLCHECSERRQKNQNKLPKLNSKPGPEGLPGMALGASRGEAYEPLAWNPEESTGGPHSAPPTAPSPFLFSETTAMKCRSPGCPFTLNVQHNGFCERCHNARQLHASHAPDHTRHLDPGKCQACLQDVTRTFNGICSTCFKRTTAEASSSLSTSLPPSCHQRSKSDPSRLVRSPSPHSCHRAGNDAPAGCLSQAARTPGDRTGTSKCRKAGCVYFGTPENKGFCTLCFIEYRENKHFAAASGKVSPTASRFQNTIPCLGRECGTLGSTMFEGYCQKCFIEAQNQRFHEAKRTEEQLRSSQRRDVPRTTQSTSRPKCARASCKNILACRSEELCMECQHPNQRMGPGAHRGEPAPEDPPKQRCRAPACDHFGNAKCNGYCNECFQFKQMYG"}, "B2": {"name": "Caspase-7 (enzyme, UniProt P55210 1-303, looked up)", "chain": "MADDQGCIEEQGVEDSANEDSVDAKPDRSSFVPSLFSKKKKNVTMRSIKTTRDRVPTYQYNMNFEKLGKCIIINNKNFDKVTGMGVRNGTDKDAEALFKCFRSLGFDVIVYNDCSCAKMQDLLKKASEEDHTNAACFACILLSHGEENVIYGKDGVTPIKDLTAHFRGDRCKTLLEKPKLFFIQACRGTELDDGIQADSGPINDTDANPRYKIPVEADFLFAYSTVPGYYSWRSPGRGSWFVQALCSILEEHGKDLEIMQILTRVNDRVARHFESQSDDPHFHEKKQIPCVVSMLTKELYFSQ"}, "B3": {"name": "Caspase-3 (enzyme, UniProt P42574 1-277, looked up)", "chain": "MENTENSVDSKSIKNLEPKIIHGSESMDSGISLDNSYKMDYPEMGLCIIINNKNFHKSTGMTSRSGTDVDAANLRETFRNLKYEVRNKNDLTREEIVELMRDVSKEDHSKRSSFVCVLLSHGEEGIIFGTNGPVDLKKITNFFRGDRCRSLTGKPKLFIIQACRGTELDCGIETDSGVDDDMACHKIPVEADFLYAYSTAPGYYSWRNSKDGSWFIQSLCAMLKQYADKLEFMHILTRVNRKVATEFESFSFDATFHAKKQIPCIVSMLTKELYFYH"}, "B4": {"name": "Ced-4 (other, UniProt P30429 1-549, looked up)", "chain": "MLCEIECRALSTAHTRLIHDFEPRDALTYLEGKNIFTEDHSELISKMSTRLERIANFLRIYRRQASELGPLIDFFNYNNQSHLADFLEDYIDFAINEPDLLRPVVIAPQFSRQMLDRKLLLGNVPKQMTCYIREYHVDRVIKKLDEMCDLDSFFLFLHGRAGSGKSVIASQALSKSDQLIGINYDSIVWLKDSGTAPKSTFDLFTDILLMLKSEDDLLNFPSVEHVTSVVLKRMICNALIDRPNTLFVFDDVVQEETIRWAQELRLRCLVTTRDVEISNAASQTCEFIEVTSLEIDECYDFLEAYGMPMPVGEKEEDVLNKTIELSSGNPATLMMFFKSCEPKTFEKMAQLNNKLESRGLVGVECITPYSYKSLAMALQRCVEVLSDEDRSALAFAVVMPPGVDIPVKLWSCVIPVDICSNEEEQLDDEVADRLKRLSKRGALLSGKRMPVLTFKIDHIIHMFLKHVVDAQTIANGISILEQRLLEIGNNNVSVPERHIPSHFQKFRRSSASEMYPKTTEETVIRPEDFPKFMQLHQKFYDSLKNFACC"}, "B5": {"name": "DEDD (other, UniProt O75618 1-318, looked up)", "chain": "MAGLKRRASQVWPEEHGEQEHGLYSLHRMFDIVGTHLTHRDVRVLSFLFVDVIDDHERGLIRNGRDFLLALERQGRCDESNFRQVLQLLRIITRHDLLPYVTLKRRRAVCPDLVDKYLEETSIRYVTPRALSDPEPRPPQPSKTVPPHYPVVCCPTSGPQMCSKRPARGRATLGSQRKRRKSVTPDPKEKQTCDIRLRVRAEYCQHETALQGNVFSNKQDPLERQFERFNQANTILKSRDLGSIICDIKFSELTYLDAFWRDYINGSLLEALKGVFITDSLKQAVGHEAIKLLVNVDEEDYELGRQKLLRNLMLQALP"}},
  "molecular_target": "T1, Nod1 (human, UniProt Q9Y239 1-953)",
  "T1 construct": "also called wild-type Nod1; WT Nod1",
  "T1 sequence": "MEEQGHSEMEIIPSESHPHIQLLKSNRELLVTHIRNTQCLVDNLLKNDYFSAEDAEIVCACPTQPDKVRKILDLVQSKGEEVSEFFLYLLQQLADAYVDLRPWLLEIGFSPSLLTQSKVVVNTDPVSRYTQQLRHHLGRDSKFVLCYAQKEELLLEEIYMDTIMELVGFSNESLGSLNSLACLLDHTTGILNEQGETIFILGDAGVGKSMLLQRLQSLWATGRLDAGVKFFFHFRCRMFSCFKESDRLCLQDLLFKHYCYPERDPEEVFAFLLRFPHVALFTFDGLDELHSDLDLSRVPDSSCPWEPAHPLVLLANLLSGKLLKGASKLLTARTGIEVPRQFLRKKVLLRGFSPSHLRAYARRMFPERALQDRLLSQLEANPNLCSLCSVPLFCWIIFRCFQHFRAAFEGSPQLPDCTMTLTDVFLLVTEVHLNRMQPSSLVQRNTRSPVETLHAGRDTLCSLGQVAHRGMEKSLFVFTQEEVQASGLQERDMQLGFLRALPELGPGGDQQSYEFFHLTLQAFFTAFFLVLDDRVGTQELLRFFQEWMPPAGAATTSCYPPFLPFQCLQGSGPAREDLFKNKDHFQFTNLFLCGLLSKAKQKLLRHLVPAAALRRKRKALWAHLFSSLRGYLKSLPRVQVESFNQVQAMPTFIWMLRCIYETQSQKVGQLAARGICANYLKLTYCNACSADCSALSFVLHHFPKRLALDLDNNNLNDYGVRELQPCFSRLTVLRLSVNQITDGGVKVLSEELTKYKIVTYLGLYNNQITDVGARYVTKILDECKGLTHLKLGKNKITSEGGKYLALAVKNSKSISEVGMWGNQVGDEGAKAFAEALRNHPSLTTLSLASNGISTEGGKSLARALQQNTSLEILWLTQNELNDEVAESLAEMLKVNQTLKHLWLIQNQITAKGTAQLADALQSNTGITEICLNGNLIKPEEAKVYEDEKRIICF",
  "assay": "co-immunoprecipitation, tagged proteins transiently expressed in 293T cells",
  "from_the_text": "The CARD and its structurally related death effector domain (DED) are peptide motifs that mediate interactions between apoptosis-regulatory proteins (Science 281:1301 (1998); Hofmann et al., Trends Biochem. Sci. 22:155 (1998)).",
  "data": [
    {"binder": "B1", "values": [
      {"measurement": "binding result", "value": "no binding"}
    ]},
    {"binder": "B2", "values": [
      {"measurement": "binding result", "value": "no binding"}
    ]},
    {"binder": "B3", "values": [
      {"measurement": "binding result", "value": "no binding"}
    ]},
    {"binder": "B4", "values": [
      {"measurement": "binding result", "value": "no binding"}
    ]},
    {"binder": "B5", "values": [
      {"measurement": "binding result", "value": "no binding"}
    ]}
  ]
}
